Drawing on US7906705B2, this text covers Km and Vmax for two proteins.

Substrate in data set [1]: O=P(O)(O)O[C@H]1O[C@H](CO)[C@H](O)[C@H](O)[C@H]1O
As to the kind of experiment: purified protein, by the assay type. The following applies: other: UDP sugar synthesis direction, 2.5 mM UTP, substrate 0 to 5 mM, pH 7.5, 30° C., E. coli expressed, partially purified.

Substrate in data set [2]: O=P(O)(O)O[C@H]1O[C@H](CO)[C@@H](O)[C@H](O)[C@H]1O
The data set can be described thus: purified protein, by the assay type. As to conditions: other: UDP sugar synthesis direction, 2.5 mM UTP, substrate 0 to 5 mM, pH 7.5, 30° C.

Setting [3] is: E. coli expressed, partially purified.

One may read the Km as the concentration of substrate that gives half-maximal velocity.

B1: melon UGGPase (UDP-Gal/Glc pyrophosphorylase), SEQ ID NO: 33 (Cucumis melo) (protein)
chain: MASSLDSAALTLSNLSINGDFASSLPNLQKNLHLLSPQQVELAKILLELGQSHLFEHWAEPGVDDNEKKAFFDQVARLNSSYPGGLASYIKTARGLLADSKEGKNPFDGFTPSVPTGEVLTFGDDSFVSFEDRGVREARKAAFVLVAGGLGERLGYNGIKVALPAETTTGTCFLQSYIEYVLALREASNRLAGESETEIPFVIMTSDDTHTRTVELLESNSYFGMKPSQVKLLKQEKVACLDDNEARLAVDPHNKYRIQTKPHGHGDVHALLYSSGLLKNWHNAGLRWVLFFQDTNGLLFKAIPASLGVSATREYHVNSLAVPRKAKEAIGGITRLTHTDGRSMVINVEYNQLDPLLRATGFPDGDVNNETGYSPFPGNINQLILELGSYIEELSKTQGAIKEFVNPKYKDATKTSFKSSTRLECMMQDYPKTLPPSARVGFTVMDTWVAYAPVKNNPEDAAKVPKGNPYHSATSGEMAIYRANSLVLRKAGVKVADPVEQVFNGQEVEVWPRITWKPKWGLTFSEIKSKINGNCSISPRSTLVIKGKNVYLKDLSLDGTLIVNADEDAEVKVEGSVHNKGWTLEPVDYKDTSVPEEIRIRGFRINKIEQEERN
Regarding B1, in data set [1], the Km turned out to be 430 µM and the Vmax is 714 μmol mg protein^−1min^−1. For the same protein, in data set [2] (setting [3]), the Km was 270 µM and the Vmax is reported as 222 μmol mg protein^−1min^−1.

B2: melon UGPase (UDP glucose pyrophosphorylase), SEQ ID NO: 35 (Cucumis melo) (protein)
chain: MASAATLSPADTEKLSKLKASVSGLTQISENEKSGFINLVSRYLSGEAQHVEWSKIQTPTDEVVVPYDSLAPVPNDPAETKKLLDKLVVLKLNGGLGTTMGCTGPKSVIEVRNGLTFLDLIVIQIENLNSKYGCNVPLLLMNSFNTHDDTQKIIEKYKGSNVDIHTFNQSQYPRLVAEDYLPLPSKGRTDKDGWYPPGHGDVFPSLKNSGKLDALIAQGKEYVFVANSDNLGAVVDLQILNHLIQNKNEYCMEVTPKTLADVKGGTLISYEGKVQLLEIAQVPDEHVNEFKSIQKFKIFNTNNLWVNLKAIKRLVEANALKMEIIPNPKEVDGIKVLQLETAAGAAIRFFDHAIGINVPRSRFLPVKATSDLLLVQSDLYTLVDGFVLRNKARKDPSNPSIELGPEFKKVGNFLSRFKSIPSIIELDSLKVVGDVSFGAGVVLKGKVTISAKPGTKLAVPDNAVIANKEINGPEDF
Turning to B2, in data set [2] (ND = Not detected), the Km came to 240 µM and the Vmax is 238 μmol mg protein^−1min^−1.
